Test results taken from PMC12065857 (Nature Communications, 2025).
No end group written: not given here.

Biological target: T1, paLptD, LptD from Pseudomonas aeruginosa (as the chain in paLptDEHis) (Pseudomonas aeruginosa, UniProt Q9I5U2 34-924)
T1 sequence: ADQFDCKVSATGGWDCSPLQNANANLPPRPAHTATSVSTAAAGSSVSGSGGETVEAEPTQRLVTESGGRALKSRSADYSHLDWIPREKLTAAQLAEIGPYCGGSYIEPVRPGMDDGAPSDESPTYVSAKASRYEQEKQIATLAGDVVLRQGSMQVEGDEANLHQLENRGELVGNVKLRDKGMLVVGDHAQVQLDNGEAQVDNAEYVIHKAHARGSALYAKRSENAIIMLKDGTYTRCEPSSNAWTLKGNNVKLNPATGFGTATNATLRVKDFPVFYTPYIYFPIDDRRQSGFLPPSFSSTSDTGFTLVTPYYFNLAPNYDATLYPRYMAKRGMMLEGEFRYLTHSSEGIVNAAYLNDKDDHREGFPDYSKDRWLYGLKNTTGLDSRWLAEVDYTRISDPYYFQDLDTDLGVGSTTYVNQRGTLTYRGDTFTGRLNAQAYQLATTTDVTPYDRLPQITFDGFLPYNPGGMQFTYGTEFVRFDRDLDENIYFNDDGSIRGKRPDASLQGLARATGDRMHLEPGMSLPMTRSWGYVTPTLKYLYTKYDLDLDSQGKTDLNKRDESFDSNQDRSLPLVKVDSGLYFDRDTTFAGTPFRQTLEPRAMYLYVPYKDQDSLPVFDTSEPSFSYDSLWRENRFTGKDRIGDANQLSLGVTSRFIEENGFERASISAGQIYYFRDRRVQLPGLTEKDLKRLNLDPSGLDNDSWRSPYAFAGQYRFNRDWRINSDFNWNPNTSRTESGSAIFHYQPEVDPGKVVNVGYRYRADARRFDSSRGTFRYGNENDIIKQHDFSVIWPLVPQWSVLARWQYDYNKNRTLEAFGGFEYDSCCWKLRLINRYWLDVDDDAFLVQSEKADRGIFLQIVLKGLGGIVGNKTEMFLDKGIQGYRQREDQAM
Assay: crystal structure

CGLKGPLYFPPADKNAPPPTKPVETQTQSTVPDKNDRATGDGPSQVNY (natural protein, also: three acyl chains (R1, R2, R3) at the N-terminus) [LptM (formerly YifL), endogenous Escherichia coli lipoprotein]: binds.
